Data as given in patent US12668821B2, “Enzymatic production of glucaric acid from glucuronic acid” (THE GOVERNING COUNCIL OF THE UNIVERSITY OF TORONTO, priority 2019, dated 2026).
Numbering of substitutions follows the chain as printed. In names and notes the source's numbering stands. Entries after “also recorded” stand apart in the source; their conditions may differ.

B1: N388S: GOOX variant with N388S relative to SEQ ID NO: 1 (protein, listed as Sarocladium strictum)
chain: NSINACLAAADVEFHEEDSEGWEMDGTAFNLRVDYDPVAIAIPRSTEDIAAAVQCGLDAGVQISAKGGGHSYGSYGFGGEDGHLMLELDRMYRVSVDDDNVATIQGGARLGYTALELLDQGNRALTHGTCPAVGIGGHVLGGGYGFATHTHGLTLDWLVGATVVLADASIVHVSKTENADLFWALRGGGGGFAIVSEFEFNTFEAPEIITTYQVTTTWNRKQHVAGLKALQDWAENTMPRELSMRLEINANALNWEGNYFGNAKDLKKVLQPIMKKAGGKSTISKLVETDWYGQINTYLYGADLNITYNYDVHEYFYANSLTAPRLSDEAISAFVDYKFDNSSVRPGRGWWIQWDFHGGKNSALASHSNDETAYAHRDQLWLWQFYDSIYDYENNTSPYPESGFEFMQGFVATIEDTLPEDRKGKYFNYADTTLDKEEAQKLYWRGNLEKLQAIKAKYDPEDVFGNVVSVEPIA
modifications: (1)..(206) FAD-binding domain; (207)..(474) substrate-binding domain
B2: E314A: GOOX variant with E314A relative to SEQ ID NO: 1 (protein, listed as Sarocladium strictum)
chain: B1 chain with E314A, S388N
modifications: (1)..(206) FAD-binding domain; (207)..(474) substrate-binding domain
B3: Q353N: GOOX variant with Q353N relative to SEQ ID NO: 1 (protein, listed as Sarocladium strictum)
chain: B1 chain with Q353N, S388N
modifications: (1)..(206) FAD-binding domain; (207)..(474) substrate-binding domain
B4: Y300N: GOOX variant with Y300N relative to SEQ ID NO: 1 (protein, listed as Sarocladium strictum)
chain: B1 chain with Y300N, S388N
modifications: (1)..(206) FAD-binding domain; (207)..(474) substrate-binding domain
B5: E247A: GOOX variant with E247A relative to SEQ ID NO: 1 (protein, listed as Sarocladium strictum)
chain: B1 chain with E247A, S388N
modifications: (1)..(206) FAD-binding domain; (207)..(474) substrate-binding domain
B6: wtGOOX: Wild-type gluco-oligosaccharide oxidase from Sarocladium strictum, SEQ ID NO: 1, with C-terminal myc-tag and 6xHis-tag (protein, listed as Sarocladium strictum)
chain: B1 chain with S388N
modifications: C-terminal myc-tag and 6xHis-tag; (1)..(206) FAD-binding domain; (207)..(474) substrate-binding domain
B7: W351F: GOOX variant with W351F relative to SEQ ID NO: 1 (protein, listed as Sarocladium strictum)
chain: B1 chain with W351F, S388N
modifications: (1)..(206) FAD-binding domain; (207)..(474) substrate-binding domain
B8: N388S-V38A: GOOX variant with N388S and V38A relative to SEQ ID NO: 1 (protein, listed as Sarocladium strictum)
chain: B1 chain with V38A
modifications: (1)..(206) FAD-binding domain; (207)..(474) substrate-binding domain
B9: Y72F: GOOX variant with Y72F relative to SEQ ID NO: 1 (protein, listed as Sarocladium strictum)
chain: B1 chain with Y72F, S388N
modifications: (1)..(206) FAD-binding domain; (207)..(474) substrate-binding domain
B10: Q384A: GOOX variant with Q384A relative to SEQ ID NO: 1 (protein, listed as Sarocladium strictum)
chain: B1 chain with Q384A, S388N
modifications: (1)..(206) FAD-binding domain; (207)..(474) substrate-binding domain
B11: Y72A: GOOX variant with Y72A relative to SEQ ID NO: 1 (protein, listed as Sarocladium strictum)
chain: B1 chain with Y72A, S388N
modifications: (1)..(206) FAD-binding domain; (207)..(474) substrate-binding domain
B12: Q384N: GOOX variant with Q384N relative to SEQ ID NO: 1 (protein, listed as Sarocladium strictum)
chain: B1 chain with Q384N, S388N
modifications: (1)..(206) FAD-binding domain; (207)..(474) substrate-binding domain
B13: Q353A: GOOX variant with Q353A relative to SEQ ID NO: 1 (protein, listed as Sarocladium strictum)
chain: B1 chain with Q353A, S388N
modifications: (1)..(206) FAD-binding domain; (207)..(474) substrate-binding domain
B14: W351A: GOOX variant with W351A relative to SEQ ID NO: 1 (protein, listed as Sarocladium strictum)
chain: B1 chain with W351A, S388N
modifications: (1)..(206) FAD-binding domain; (207)..(474) substrate-binding domain

assay: Activity screening of GOOX variants and glucose oxidase on MeGlcA; type: biochemical; conditions: enzyme 16 nM, 37° C., 1 mM MeGlcA (FIG. 11 legend; b102 says 10 mM), 100 mM Tris pH 8.0 (GOOX variants) or 50 mM sodium acetate pH 5.0 (GO)
Method: (§1) FIG. 11: Activity screening of GOOX variants and glucose oxidase (GO) on GlcA and MeGlcA substrates. The enzymes (16 nM) were assayed at 37° C. with 10 mM GlcA and 1 mM MeGlcA in 100 mM Tris buffer pH 8.0 (for GOOX variants) or 50 mM sodium acetate pH 5.0 (for GO). The dotted line indicates the activity of GOOX-VN for MeGlcA for ease of comparison. “CtCBM22A-wtGOOX” and “CtCBM22A-Y300A” represent fusion proteins where the C terminus of the xylan-binding protein CtCBM22A (described in Vuong and Master, 2014) is fused to the N terminus GOOX.
(§2) The specific activity of GOOX-Y300A (16 nM) on MeGlcA and GlcA (1 mM) was measured in 50 mM Tris buffer pH 8.0 at 40° C. The amount of methyl glucaric acid was determined by measuring the release of H2O2 using a previously published colorimetric assay (Lin et al., 1991). The kinetics of GOOX-Y300A on these acidic sugars were measured at the same condition, but using up to 60 mM MeGlcA and GlcA and in 0.3 M Tris buffer pH 8.0.

Row | nmol oxidized MeGlcA Mean | Molecule
1 | 1.4023 nmol | B1
2 | 1.0403 nmol | B2
3 | 0.4522 nmol | B3
4 | 0.08201 nmol | B4
5 | 0.724 nmol | B5
6 | 0.9032 nmol | B6
7 | 0.08201 nmol | B7
8 | 0.9559 nmol | B8
9 | 0.6279 nmol | B9
10 | 0.4569 nmol | B10
11 | 0.8997 nmol | B11
12 | 0.683 nmol | B12
13 | 0.594 nmol | B13
14 | 0.7166 nmol | B14

same assay, conditions: screening, compared with wtGOOX

Row | activity with MeGlcA as substrate (in words) | Molecule
15 | improved activity over wtGOOX | B1

assay: Degradation of MeGlcA by H2O2 (HPAEC-PAD); type: physicochemical; conditions: up to 100 mM H2O2, 50 mM Tris pH 8.0, 40° C., 16 h
Method: FIG. 10: HPAEC-PAD analyses of H2O2 effects on AxyAgu115A activity and MeGlcA degradation.
AxyAgu115A (10 μg/mL) was incubated with 1% glucuronoxylan in 50 mM Tris buffer pH 8.0 in the presence of various H2O2 concentrations (0.01-100 mM). MeGlcA (1 mM) was also incubated with the same H2O2 concentrations. The reactions were kept in the dark at 40° C. for 16 h in a thermomixer (Eppendorf, USA). Catalase (200 μg/mL) was then added, and the reactions were kept incubating for another 30 min to remove H2O2 before HPAEC-PAD analysis.
Even at 200 mM H2O2, GOOX-Y300A retained more than 50% of its activity on glucose and 100% of its activity on cellobiose (Vuong et al., 2016).

Row | Molecule | loss of MeGlcA in the presence of H2O2
16 | CO[C@@H]([C@H](O)[C@@H](O)C=O)[C@H](O)C(=O)O [MeGlcA, 4-O-methyl D-glucuronic acid] | no loss of MeGlcA; also recorded: did not cause a loss of MeGlcA

assay: Activity screening of GOOX variants and glucose oxidase on GlcA; type: biochemical; conditions: enzyme 16 nM, 37° C., 10 mM GlcA (FIG. 11 legend; b102 says 100 mM), 100 mM Tris pH 8.0 (GOOX variants) or 50 mM sodium acetate pH 5.0 (GO)
Method: as §1, §2

Row | nmol oxidized GlcA Mean | Molecule
17 | -0.02652 nmol | B1
18 | -0.03292 nmol | B2
19 | 0.09327 nmol | B3
20 | -0.03749 nmol | B4
21 | 0.05669 nmol | B5
22 | -0.04572 nmol | B6
23 | -0.04298 nmol | B7
24 | 0.02835 nmol | B8
25 | 0.05395 nmol | B9
26 | -0.00914 nmol | B10
27 | -0.01097 nmol | B11
28 | -0.02195 nmol | B12
29 | 0.05212 nmol | B13
30 | 0.06492 nmol | B14

same assay, conditions: screening, compared with wtGOOX

Row | activity with GlcA as substrate (in words) | Molecule
31 | improved activity over wtGOOX | B1
32 | improved activity over wtGOOX | B3
33 | improved activity over wtGOOX | B5
34 | improved activity over wtGOOX | B9
35 | improved activity over wtGOOX | B13
36 | improved activity over wtGOOX | B14
